The sequences below were run on Fer (mouse) (assay: phosphorylation enrichment, bacterial display (enrichment ratio); higher = better substrate or ligand; peptides without Tyr show the background).
With NFRTTYVNANE [KCNH2_Y475] the phosphorylation enrichment was 0.551.
With LEKISYVYMKR [SSX7_Y48] the phosphorylation enrichment was 0.875.
Sequence WGLRSYYETSK [MAGED2_Y448] has a phosphorylation enrichment of 0.464.
In the case of AAILGYCHGEA [XPC_Y669_R671H], the phosphorylation enrichment is reported as 0.474.
In the case of LGSNGYKKLLK [SEPSECS_Y334], the phosphorylation enrichment is reported as 0.351.
DASENYFVMDS [TMEM240_Y77_T80M] showed a phosphorylation enrichment of 0.732.
In the case of GGPAGYLRRAS [PKLR_Y38], the phosphorylation enrichment is reported as 0.377.
With LYDPDYMKVIL [CYP4A22_Y104] the phosphorylation enrichment was 1.48.
For KYVKMYDNHQL [MYO9A_Y203], the phosphorylation enrichment was 0.441.
In the case of CTTIHYNYMYN [TP53_Y234_C238Y], the phosphorylation enrichment is reported as 1.21.
In the case of AVISVYDLVAF [PSEN1_Y256_V261F], the phosphorylation enrichment is reported as 16.
In the case of SERNNYSRVAN [CWC22_Y797], the phosphorylation enrichment is reported as 0.422.
With NDKLCYEVSSP [CDH13_Y66_R65C] the phosphorylation enrichment was 0.883.
For HNELFYEAAEH [VANGL1_Y345_E347A_YF], the phosphorylation enrichment was 9.73.
LFLALYTGLVR [PIGB_Y402_H407R] was tested, and the phosphorylation enrichment was 0.539.
In the case of LRFEVYGGENE [STOX1_Y610_YF], the phosphorylation enrichment is reported as 0.483.
RTEAQYRFIYM [PTPN11_Y511_Q506R] was tested, and the phosphorylation enrichment was 0.794.
With IHYPPYTDWNQ [ALDH3B2_Y365] the phosphorylation enrichment was 2.21.
Work on EWCSPYGLTPR [GRIN3B_Y601_R598C] yielded a phosphorylation enrichment of 1.2.
With FVPAAYVKKLD [SPTAN1_Y1020] the phosphorylation enrichment was 0.348.
DGTIVCTGLET [USH2A_Y4487_Y4487C] showed a phosphorylation enrichment of 0.582.
Work on WKEIEYEVVPD [CPS1_Y634_R638P] yielded a phosphorylation enrichment of 0.554.
ALSDGYWVVSN [TPP1_Y459] was tested, and the phosphorylation enrichment was 0.398.
VDDQIYFFRKP [PBRM1_Y1289_E1287Q_YF] was tested, and the phosphorylation enrichment was 0.728.
With PFADPYFDFEI [ZC3H18_Y371_YF] the phosphorylation enrichment was 0.902.
For GTQCSYLLSRK [UGT3A1_Y123], the phosphorylation enrichment was 0.43.
REVVNYVQKRN [RMI1_Y450] was tested, and the phosphorylation enrichment was 0.554.
With HFVDEYDLTIE [KRAS_Y32_P34L] the phosphorylation enrichment was 0.841.
For IIRFNYLLDVL [FGFR4_Y237_S232I_YF], the phosphorylation enrichment was 0.47.

These sequences were tested against Fyn (UniProt P06241) in the same assay as above.
Fyn, sequence (P06241 whole entry, looked up): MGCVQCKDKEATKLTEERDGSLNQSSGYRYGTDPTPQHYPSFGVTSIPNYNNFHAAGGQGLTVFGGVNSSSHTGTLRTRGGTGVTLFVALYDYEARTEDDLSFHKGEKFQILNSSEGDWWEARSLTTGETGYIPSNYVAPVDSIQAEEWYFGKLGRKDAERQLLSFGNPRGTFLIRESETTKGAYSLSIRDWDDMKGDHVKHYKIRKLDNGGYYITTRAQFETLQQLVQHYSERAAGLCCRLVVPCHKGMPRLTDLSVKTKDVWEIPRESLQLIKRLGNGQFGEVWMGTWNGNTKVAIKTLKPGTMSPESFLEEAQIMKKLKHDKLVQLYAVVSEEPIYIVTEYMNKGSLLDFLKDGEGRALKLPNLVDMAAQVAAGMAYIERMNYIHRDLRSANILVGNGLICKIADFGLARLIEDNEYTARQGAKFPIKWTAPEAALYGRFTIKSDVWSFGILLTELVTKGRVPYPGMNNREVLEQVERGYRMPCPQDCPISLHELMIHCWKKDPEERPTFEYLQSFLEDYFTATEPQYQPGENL
Sequence NFRTTYVNANE [KCNH2_Y475] has a phosphorylation enrichment of 0.444.
LEKISYVYMKR [SSX7_Y48] was tested, and the phosphorylation enrichment was 1.21.
WGLRSYYETSK [MAGED2_Y448] showed a phosphorylation enrichment of 0.4.
Sequence AAILGYCHGEA [XPC_Y669_R671H] has a phosphorylation enrichment of 0.535.
In the case of LGSNGYKKLLK [SEPSECS_Y334], the phosphorylation enrichment is reported as 0.879.
DASENYFVMDS [TMEM240_Y77_T80M] gave a phosphorylation enrichment of 0.392.
For GGPAGYLRRAS [PKLR_Y38], the phosphorylation enrichment was 0.636.
LYDPDYMKVIL [CYP4A22_Y104] gave a phosphorylation enrichment of 0.72.
Work on KYVKMYDNHQL [MYO9A_Y203] yielded a phosphorylation enrichment of 0.46.
Sequence CTTIHYNYMYN [TP53_Y234_C238Y] has a phosphorylation enrichment of 0.507.
In the case of AVISVYDLVAF [PSEN1_Y256_V261F], the phosphorylation enrichment is reported as 8.21.
In the case of SERNNYSRVAN [CWC22_Y797], the phosphorylation enrichment is reported as 0.347.
NDKLCYEVSSP [CDH13_Y66_R65C] was tested, and the phosphorylation enrichment was 0.562.
HNELFYEAAEH [VANGL1_Y345_E347A_YF] was tested, and the phosphorylation enrichment was 1.05.
Work on LFLALYTGLVR [PIGB_Y402_H407R] yielded a phosphorylation enrichment of 0.82.
LRFEVYGGENE [STOX1_Y610_YF] gave a phosphorylation enrichment of 0.539.
Work on RTEAQYRFIYM [PTPN11_Y511_Q506R] yielded a phosphorylation enrichment of 0.423.
IHYPPYTDWNQ [ALDH3B2_Y365] was tested, and the phosphorylation enrichment was 0.512.
In the case of EWCSPYGLTPR [GRIN3B_Y601_R598C], the phosphorylation enrichment is reported as 1.76.
For FVPAAYVKKLD [SPTAN1_Y1020], the phosphorylation enrichment was 0.43.
DGTIVCTGLET [USH2A_Y4487_Y4487C] was tested, and the phosphorylation enrichment was 0.454.
WKEIEYEVVPD [CPS1_Y634_R638P] showed a phosphorylation enrichment of 0.483.
Sequence ALSDGYWVVSN [TPP1_Y459] has a phosphorylation enrichment of 0.44.
VDDQIYFFRKP [PBRM1_Y1289_E1287Q_YF] showed a phosphorylation enrichment of 6.38.
In the case of PFADPYFDFEI [ZC3H18_Y371_YF], the phosphorylation enrichment is reported as 0.885.
GTQCSYLLSRK [UGT3A1_Y123] showed a phosphorylation enrichment of 0.329.
With REVVNYVQKRN [RMI1_Y450] the phosphorylation enrichment was 0.541.
Sequence HFVDEYDLTIE [KRAS_Y32_P34L] has a phosphorylation enrichment of 0.811.
IIRFNYLLDVL [FGFR4_Y237_S232I_YF] gave a phosphorylation enrichment of 0.513.

These sequences were tested against FGFR1 (UniProt P11362) in the same assay as above.
FGFR1, sequence (P11362 whole entry, looked up): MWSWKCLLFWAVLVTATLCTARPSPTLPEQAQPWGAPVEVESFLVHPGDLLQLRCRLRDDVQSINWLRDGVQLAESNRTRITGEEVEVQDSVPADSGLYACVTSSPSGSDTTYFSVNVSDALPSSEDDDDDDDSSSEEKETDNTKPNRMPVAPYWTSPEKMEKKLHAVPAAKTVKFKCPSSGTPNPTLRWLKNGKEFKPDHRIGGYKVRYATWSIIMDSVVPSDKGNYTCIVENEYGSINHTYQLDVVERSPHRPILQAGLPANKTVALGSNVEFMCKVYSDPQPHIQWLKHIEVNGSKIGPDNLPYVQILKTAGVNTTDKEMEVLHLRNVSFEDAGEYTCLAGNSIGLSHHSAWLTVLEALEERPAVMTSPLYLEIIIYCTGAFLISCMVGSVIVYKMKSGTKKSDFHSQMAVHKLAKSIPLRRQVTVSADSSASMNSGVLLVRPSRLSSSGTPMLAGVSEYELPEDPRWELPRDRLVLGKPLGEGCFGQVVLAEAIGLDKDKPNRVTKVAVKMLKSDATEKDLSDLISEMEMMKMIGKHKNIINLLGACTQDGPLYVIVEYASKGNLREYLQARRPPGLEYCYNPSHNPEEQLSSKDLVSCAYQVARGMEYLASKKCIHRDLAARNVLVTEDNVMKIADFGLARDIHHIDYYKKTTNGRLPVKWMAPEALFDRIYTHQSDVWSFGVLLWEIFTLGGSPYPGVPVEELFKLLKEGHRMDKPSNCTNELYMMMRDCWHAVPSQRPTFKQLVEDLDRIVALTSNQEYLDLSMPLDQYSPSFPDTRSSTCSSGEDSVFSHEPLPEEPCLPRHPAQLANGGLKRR
NFRTTYVNANE [KCNH2_Y475] showed a phosphorylation enrichment of 0.498.
LEKISYVYMKR [SSX7_Y48] showed a phosphorylation enrichment of 0.784.
WGLRSYYETSK [MAGED2_Y448] gave a phosphorylation enrichment of 0.508.
In the case of AAILGYCHGEA [XPC_Y669_R671H], the phosphorylation enrichment is reported as 0.523.
Sequence LGSNGYKKLLK [SEPSECS_Y334] has a phosphorylation enrichment of 0.338.
Sequence DASENYFVMDS [TMEM240_Y77_T80M] has a phosphorylation enrichment of 8.76.
GGPAGYLRRAS [PKLR_Y38] was tested, and the phosphorylation enrichment was 0.405.
For LYDPDYMKVIL [CYP4A22_Y104], the phosphorylation enrichment was 1.54.
KYVKMYDNHQL [MYO9A_Y203] showed a phosphorylation enrichment of 0.557.
Work on CTTIHYNYMYN [TP53_Y234_C238Y] yielded a phosphorylation enrichment of 0.877.
With AVISVYDLVAF [PSEN1_Y256_V261F] the phosphorylation enrichment was 0.72.
SERNNYSRVAN [CWC22_Y797] was tested, and the phosphorylation enrichment was 0.435.
In the case of NDKLCYEVSSP [CDH13_Y66_R65C], the phosphorylation enrichment is reported as 0.514.
Work on HNELFYEAAEH [VANGL1_Y345_E347A_YF] yielded a phosphorylation enrichment of 0.826.
LFLALYTGLVR [PIGB_Y402_H407R] was tested, and the phosphorylation enrichment was 0.452.
With LRFEVYGGENE [STOX1_Y610_YF] the phosphorylation enrichment was 0.621.
For RTEAQYRFIYM [PTPN11_Y511_Q506R], the phosphorylation enrichment was 0.683.
IHYPPYTDWNQ [ALDH3B2_Y365] gave a phosphorylation enrichment of 1.14.
In the case of EWCSPYGLTPR [GRIN3B_Y601_R598C], the phosphorylation enrichment is reported as 0.474.
FVPAAYVKKLD [SPTAN1_Y1020] showed a phosphorylation enrichment of 0.505.
For DGTIVCTGLET [USH2A_Y4487_Y4487C], the phosphorylation enrichment was 0.509.
Sequence WKEIEYEVVPD [CPS1_Y634_R638P] has a phosphorylation enrichment of 0.7.
For ALSDGYWVVSN [TPP1_Y459], the phosphorylation enrichment was 1.32.
For VDDQIYFFRKP [PBRM1_Y1289_E1287Q_YF], the phosphorylation enrichment was 3.43.
With PFADPYFDFEI [ZC3H18_Y371_YF] the phosphorylation enrichment was 9.45.
GTQCSYLLSRK [UGT3A1_Y123] gave a phosphorylation enrichment of 0.482.
With REVVNYVQKRN [RMI1_Y450] the phosphorylation enrichment was 0.36.
HFVDEYDLTIE [KRAS_Y32_P34L] was tested, and the phosphorylation enrichment was 0.752.
IIRFNYLLDVL [FGFR4_Y237_S232I_YF] showed a phosphorylation enrichment of 0.809.

Each sequence was assayed against FGFR3 (UniProt P22607) in the same assay as above.
FGFR3, sequence (P22607 whole entry, looked up): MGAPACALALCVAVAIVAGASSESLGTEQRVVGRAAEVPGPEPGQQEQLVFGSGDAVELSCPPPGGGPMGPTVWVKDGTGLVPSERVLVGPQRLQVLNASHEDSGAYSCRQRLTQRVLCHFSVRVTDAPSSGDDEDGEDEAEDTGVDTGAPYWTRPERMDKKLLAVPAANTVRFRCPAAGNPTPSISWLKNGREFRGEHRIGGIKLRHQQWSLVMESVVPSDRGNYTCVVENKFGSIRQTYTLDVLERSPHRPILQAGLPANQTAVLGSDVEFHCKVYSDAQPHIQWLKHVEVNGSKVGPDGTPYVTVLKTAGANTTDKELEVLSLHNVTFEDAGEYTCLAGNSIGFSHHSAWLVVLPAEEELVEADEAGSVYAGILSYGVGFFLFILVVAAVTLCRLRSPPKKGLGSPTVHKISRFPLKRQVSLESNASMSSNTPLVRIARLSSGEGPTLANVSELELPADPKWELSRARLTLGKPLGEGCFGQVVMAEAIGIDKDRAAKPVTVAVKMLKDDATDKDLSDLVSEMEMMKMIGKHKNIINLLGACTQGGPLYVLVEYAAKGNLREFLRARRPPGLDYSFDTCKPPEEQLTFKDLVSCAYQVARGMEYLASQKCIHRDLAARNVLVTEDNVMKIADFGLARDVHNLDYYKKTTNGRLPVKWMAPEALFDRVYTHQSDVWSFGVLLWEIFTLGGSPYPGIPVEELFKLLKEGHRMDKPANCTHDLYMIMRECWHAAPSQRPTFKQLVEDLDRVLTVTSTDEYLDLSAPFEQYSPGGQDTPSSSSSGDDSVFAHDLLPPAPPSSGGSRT
Sequence NFRTTYVNANE [KCNH2_Y475] has a phosphorylation enrichment of 0.719.
With LEKISYVYMKR [SSX7_Y48] the phosphorylation enrichment was 1.32.
WGLRSYYETSK [MAGED2_Y448] gave a phosphorylation enrichment of 0.733.
AAILGYCHGEA [XPC_Y669_R671H] was tested, and the phosphorylation enrichment was 0.733.
LGSNGYKKLLK [SEPSECS_Y334] was tested, and the phosphorylation enrichment was 0.636.
In the case of DASENYFVMDS [TMEM240_Y77_T80M], the phosphorylation enrichment is reported as 7.01.
Sequence GGPAGYLRRAS [PKLR_Y38] has a phosphorylation enrichment of 0.442.
LYDPDYMKVIL [CYP4A22_Y104] showed a phosphorylation enrichment of 1.07.
For KYVKMYDNHQL [MYO9A_Y203], the phosphorylation enrichment was 0.432.
For CTTIHYNYMYN [TP53_Y234_C238Y], the phosphorylation enrichment was 0.844.
AVISVYDLVAF [PSEN1_Y256_V261F] gave a phosphorylation enrichment of 0.893.
In the case of SERNNYSRVAN [CWC22_Y797], the phosphorylation enrichment is reported as 0.456.
NDKLCYEVSSP [CDH13_Y66_R65C] gave a phosphorylation enrichment of 0.876.
For HNELFYEAAEH [VANGL1_Y345_E347A_YF], the phosphorylation enrichment was 0.884.
Sequence LFLALYTGLVR [PIGB_Y402_H407R] has a phosphorylation enrichment of 0.747.
Sequence LRFEVYGGENE [STOX1_Y610_YF] has a phosphorylation enrichment of 0.774.
RTEAQYRFIYM [PTPN11_Y511_Q506R] was tested, and the phosphorylation enrichment was 1.1.
Work on IHYPPYTDWNQ [ALDH3B2_Y365] yielded a phosphorylation enrichment of 0.881.
EWCSPYGLTPR [GRIN3B_Y601_R598C] showed a phosphorylation enrichment of 0.613.
FVPAAYVKKLD [SPTAN1_Y1020] was tested, and the phosphorylation enrichment was 0.767.
Sequence DGTIVCTGLET [USH2A_Y4487_Y4487C] has a phosphorylation enrichment of 0.636.
WKEIEYEVVPD [CPS1_Y634_R638P] gave a phosphorylation enrichment of 0.774.
ALSDGYWVVSN [TPP1_Y459] gave a phosphorylation enrichment of 1.1.
With VDDQIYFFRKP [PBRM1_Y1289_E1287Q_YF] the phosphorylation enrichment was 3.47.
PFADPYFDFEI [ZC3H18_Y371_YF] showed a phosphorylation enrichment of 6.94.
GTQCSYLLSRK [UGT3A1_Y123] showed a phosphorylation enrichment of 0.441.
In the case of REVVNYVQKRN [RMI1_Y450], the phosphorylation enrichment is reported as 0.521.
With HFVDEYDLTIE [KRAS_Y32_P34L] the phosphorylation enrichment was 1.14.
IIRFNYLLDVL [FGFR4_Y237_S232I_YF] gave a phosphorylation enrichment of 0.763.

Source: the supplement of paper PMC10065799, “High-throughput profiling of sequence recognition by tyrosine kinases and SH2 domains using bacterial peptide display” (eLife, 2023)
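Further: 11-residue human phosphosite peptides and single-mutation variants displayed on the E. coli surface, counted by deep sequencing, each peptide's frequency after selection divided by its frequency in the unselected input library; frequency after pTyr selection over input frequency; kinase dosed for 20-30% of maximal phosphorylation in three min.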
